Measurements published in patent publication US20220204643A1 (published 2022).
Values belong to the binder of their own block, whether it stands above or below them.

Assays:
Assay in all cases: protein array
[1] = molecular target: T1, HSPA (Hsp70) binding protein 1, transcript variant 2 (human, UniProt Q9NZL4 1-359)
T1 construct: on protein array; also called HSPBP1
T1 sequence: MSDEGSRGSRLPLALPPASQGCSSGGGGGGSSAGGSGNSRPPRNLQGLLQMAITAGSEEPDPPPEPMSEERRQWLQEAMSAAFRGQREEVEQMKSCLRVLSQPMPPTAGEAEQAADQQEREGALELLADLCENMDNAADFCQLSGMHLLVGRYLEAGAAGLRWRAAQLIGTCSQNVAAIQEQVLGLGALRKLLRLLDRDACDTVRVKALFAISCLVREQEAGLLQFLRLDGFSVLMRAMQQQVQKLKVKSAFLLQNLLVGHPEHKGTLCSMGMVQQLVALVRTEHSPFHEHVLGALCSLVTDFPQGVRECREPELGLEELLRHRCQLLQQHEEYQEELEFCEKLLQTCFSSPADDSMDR

[2] = molecular target: T2, BCL2 associated athanogene 2 (human, UniProt O95816 2-211)
T2 construct: on protein array; also called BAG2
T2 sequence (O95816 2-211 limits assumed): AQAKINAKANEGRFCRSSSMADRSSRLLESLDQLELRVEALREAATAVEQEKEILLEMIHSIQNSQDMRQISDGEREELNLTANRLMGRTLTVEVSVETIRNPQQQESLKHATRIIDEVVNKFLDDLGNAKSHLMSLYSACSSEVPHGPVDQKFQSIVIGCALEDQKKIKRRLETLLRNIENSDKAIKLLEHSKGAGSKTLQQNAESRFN

[3] = molecular target: T3, heat shock protein family A (Hsp70) member 2 (human, UniProt P54652 1-639)
T3 construct: on protein array; also called HSPA2
T3 sequence (P54652 whole entry): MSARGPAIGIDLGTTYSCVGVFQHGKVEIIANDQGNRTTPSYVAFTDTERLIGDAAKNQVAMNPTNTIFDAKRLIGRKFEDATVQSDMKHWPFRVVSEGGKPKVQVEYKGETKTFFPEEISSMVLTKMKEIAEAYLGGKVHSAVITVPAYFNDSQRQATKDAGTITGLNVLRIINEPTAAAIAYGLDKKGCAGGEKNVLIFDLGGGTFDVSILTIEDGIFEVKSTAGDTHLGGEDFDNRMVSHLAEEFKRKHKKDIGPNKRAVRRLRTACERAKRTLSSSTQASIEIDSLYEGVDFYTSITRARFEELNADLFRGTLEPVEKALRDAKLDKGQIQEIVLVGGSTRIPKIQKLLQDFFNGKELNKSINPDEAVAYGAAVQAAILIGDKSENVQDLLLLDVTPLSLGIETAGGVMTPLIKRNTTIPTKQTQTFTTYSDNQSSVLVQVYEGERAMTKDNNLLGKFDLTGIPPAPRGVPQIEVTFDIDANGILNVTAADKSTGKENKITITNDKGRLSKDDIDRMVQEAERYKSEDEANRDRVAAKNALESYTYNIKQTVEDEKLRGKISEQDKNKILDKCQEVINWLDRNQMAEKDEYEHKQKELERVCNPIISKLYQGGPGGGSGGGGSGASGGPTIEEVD

[4] = molecular target: T4, C-X-C motif chemokine receptor 4, transcript variant 2 (human, UniProt P61073 1-352)
T4 construct: on protein array; also called CXCR4
T4 sequence (P61073 whole entry, change not shown): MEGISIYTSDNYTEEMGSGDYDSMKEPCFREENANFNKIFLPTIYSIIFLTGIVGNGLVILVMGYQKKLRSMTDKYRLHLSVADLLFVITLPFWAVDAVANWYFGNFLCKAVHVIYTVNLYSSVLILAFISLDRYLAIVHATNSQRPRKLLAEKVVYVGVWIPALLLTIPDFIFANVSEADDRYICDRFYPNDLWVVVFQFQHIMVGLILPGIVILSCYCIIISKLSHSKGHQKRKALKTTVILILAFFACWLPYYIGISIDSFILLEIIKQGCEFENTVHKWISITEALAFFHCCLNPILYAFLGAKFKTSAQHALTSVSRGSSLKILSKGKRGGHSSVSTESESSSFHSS

[5] = molecular target: T5, Long intergenic non-protein coding rna 242 (human, UniProt Q5T6M2 1-205)
T5 construct: on protein array; also called LINC00242
T5 chain: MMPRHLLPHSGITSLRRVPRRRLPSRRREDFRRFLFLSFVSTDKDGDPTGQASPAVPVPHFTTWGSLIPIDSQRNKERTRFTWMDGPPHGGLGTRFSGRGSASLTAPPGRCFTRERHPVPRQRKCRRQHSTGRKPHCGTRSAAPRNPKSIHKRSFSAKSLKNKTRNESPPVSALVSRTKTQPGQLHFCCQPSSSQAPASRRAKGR

[6] = molecular target: T6, dual specificity phosphatase 12 (human, UniProt Q9UNI6 1-340)
T6 construct: on protein array; also called DUSP12
T6 sequence (Q9UNI6 whole entry): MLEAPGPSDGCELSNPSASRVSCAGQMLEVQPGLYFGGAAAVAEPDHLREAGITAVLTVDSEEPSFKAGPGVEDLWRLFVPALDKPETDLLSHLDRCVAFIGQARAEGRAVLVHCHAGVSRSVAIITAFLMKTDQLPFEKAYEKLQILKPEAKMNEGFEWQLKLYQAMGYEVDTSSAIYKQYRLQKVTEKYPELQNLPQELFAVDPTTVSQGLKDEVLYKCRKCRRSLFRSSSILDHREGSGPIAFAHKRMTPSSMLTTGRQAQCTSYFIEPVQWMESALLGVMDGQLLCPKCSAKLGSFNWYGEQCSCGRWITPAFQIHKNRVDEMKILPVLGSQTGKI

[7] = molecular target: T7, actinin alpha 1, transcript variant 2 (human, UniProt P12814 1-892)
T7 construct: on protein array; also called ACTN1
T7 sequence (P12814 whole entry, change not shown): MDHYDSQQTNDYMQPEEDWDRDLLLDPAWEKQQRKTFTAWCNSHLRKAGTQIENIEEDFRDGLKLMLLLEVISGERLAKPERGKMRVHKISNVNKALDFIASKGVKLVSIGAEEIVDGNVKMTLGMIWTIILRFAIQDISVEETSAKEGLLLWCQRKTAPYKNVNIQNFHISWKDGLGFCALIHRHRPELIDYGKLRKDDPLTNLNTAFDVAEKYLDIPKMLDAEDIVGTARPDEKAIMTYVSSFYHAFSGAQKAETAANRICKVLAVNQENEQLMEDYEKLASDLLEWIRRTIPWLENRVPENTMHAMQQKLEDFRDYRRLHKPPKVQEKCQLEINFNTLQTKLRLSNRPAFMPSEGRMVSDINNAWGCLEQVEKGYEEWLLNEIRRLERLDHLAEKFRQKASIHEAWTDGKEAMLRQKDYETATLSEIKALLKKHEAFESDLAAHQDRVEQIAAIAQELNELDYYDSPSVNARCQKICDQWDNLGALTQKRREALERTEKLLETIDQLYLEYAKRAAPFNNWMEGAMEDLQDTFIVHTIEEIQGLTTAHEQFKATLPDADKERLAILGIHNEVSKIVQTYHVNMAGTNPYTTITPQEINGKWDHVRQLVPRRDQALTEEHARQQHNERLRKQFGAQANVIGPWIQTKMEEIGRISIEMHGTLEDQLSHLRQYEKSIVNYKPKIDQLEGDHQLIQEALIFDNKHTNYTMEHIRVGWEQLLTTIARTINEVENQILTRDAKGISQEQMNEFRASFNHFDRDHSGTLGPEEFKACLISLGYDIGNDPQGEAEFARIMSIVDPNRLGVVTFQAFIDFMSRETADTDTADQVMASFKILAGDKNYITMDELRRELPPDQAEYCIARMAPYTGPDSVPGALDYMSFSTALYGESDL

[8] = molecular target: T8, calcium and integrin binding 1, transcript variant b (human, UniProt Q99828 2-191)
T8 construct: on protein array; also called CIB1
T8 sequence: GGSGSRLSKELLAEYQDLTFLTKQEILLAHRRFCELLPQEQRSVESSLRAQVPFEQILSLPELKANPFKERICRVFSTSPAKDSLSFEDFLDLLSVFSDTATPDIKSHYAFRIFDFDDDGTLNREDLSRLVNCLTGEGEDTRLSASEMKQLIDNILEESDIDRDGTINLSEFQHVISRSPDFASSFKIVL

[9] = molecular target: T9, Ankyrin repeat domain 20 family member a5, pseudogene (human, UniProt A0PJZ0 1-165)
T9 construct: on protein array; also called ANKRD20A5P
T9 sequence (A0PJZ0 whole entry, the tested form may be a part): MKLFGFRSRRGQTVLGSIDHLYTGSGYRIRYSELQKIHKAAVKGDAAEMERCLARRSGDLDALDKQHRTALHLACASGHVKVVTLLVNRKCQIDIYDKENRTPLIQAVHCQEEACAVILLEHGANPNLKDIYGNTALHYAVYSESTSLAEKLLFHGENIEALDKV

[10] = molecular target: T10, Kirre like nephrin family adhesion molecule 1 (human, UniProt Q96J84 17-757)
T10 construct: on protein array
T10 sequence: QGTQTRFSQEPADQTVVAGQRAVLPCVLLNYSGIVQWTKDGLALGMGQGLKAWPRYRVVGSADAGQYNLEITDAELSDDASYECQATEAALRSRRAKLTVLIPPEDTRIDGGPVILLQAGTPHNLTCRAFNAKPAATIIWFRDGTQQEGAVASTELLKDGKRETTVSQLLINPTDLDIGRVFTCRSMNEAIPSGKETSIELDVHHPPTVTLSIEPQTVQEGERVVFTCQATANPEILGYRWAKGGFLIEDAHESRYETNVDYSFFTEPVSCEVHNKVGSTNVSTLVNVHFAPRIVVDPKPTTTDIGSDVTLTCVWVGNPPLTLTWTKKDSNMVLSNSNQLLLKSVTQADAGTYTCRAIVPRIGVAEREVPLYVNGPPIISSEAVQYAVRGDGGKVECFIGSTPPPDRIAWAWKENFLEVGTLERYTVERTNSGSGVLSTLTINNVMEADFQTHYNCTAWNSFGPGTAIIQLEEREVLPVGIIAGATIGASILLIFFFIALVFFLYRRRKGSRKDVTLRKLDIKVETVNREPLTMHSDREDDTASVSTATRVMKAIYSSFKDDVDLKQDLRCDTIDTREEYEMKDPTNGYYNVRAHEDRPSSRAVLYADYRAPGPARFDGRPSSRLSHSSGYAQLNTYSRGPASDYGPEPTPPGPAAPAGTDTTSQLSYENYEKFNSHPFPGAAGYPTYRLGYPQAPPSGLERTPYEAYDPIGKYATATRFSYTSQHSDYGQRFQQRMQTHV

[11] = molecular target: T11, GRB10 interacting GYF protein 1, transcript variant X10 (human, UniProt O75420 1-1035)
T11 construct: on protein array; also called GIGYF1
T11 sequence: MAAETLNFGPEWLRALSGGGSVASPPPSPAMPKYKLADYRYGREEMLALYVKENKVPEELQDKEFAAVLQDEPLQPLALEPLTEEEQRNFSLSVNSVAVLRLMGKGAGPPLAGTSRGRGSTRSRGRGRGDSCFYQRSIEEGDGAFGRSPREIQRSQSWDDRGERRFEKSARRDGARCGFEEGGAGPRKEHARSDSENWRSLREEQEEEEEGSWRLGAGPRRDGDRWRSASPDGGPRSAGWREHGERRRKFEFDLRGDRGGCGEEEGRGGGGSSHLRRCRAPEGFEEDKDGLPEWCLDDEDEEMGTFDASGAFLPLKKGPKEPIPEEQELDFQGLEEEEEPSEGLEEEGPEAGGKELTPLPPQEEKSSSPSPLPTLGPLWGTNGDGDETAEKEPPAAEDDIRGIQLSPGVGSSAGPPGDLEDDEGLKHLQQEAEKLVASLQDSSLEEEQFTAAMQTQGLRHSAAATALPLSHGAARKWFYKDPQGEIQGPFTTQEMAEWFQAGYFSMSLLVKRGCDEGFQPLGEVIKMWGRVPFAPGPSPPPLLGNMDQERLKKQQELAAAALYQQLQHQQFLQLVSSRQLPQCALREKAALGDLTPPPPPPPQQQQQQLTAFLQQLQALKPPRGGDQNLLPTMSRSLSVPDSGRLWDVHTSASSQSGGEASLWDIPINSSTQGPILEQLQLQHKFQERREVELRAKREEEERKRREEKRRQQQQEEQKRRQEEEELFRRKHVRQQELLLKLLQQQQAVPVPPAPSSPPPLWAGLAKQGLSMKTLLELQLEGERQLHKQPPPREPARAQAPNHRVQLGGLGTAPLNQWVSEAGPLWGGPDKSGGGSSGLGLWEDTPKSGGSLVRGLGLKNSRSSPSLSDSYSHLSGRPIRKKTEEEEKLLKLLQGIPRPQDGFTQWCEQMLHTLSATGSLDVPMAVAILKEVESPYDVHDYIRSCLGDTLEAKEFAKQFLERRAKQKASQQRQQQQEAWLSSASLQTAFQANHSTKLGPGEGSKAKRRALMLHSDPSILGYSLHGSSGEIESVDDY

[12] = molecular target: T12, killer cell lectin like receptor Cl, transcript variant 3 (human, UniProt P26715 1-233)
T12 construct: on protein array; also called KLRC1
T12 sequence (P26715 other isoform, or with tags, fused parts or gaps mutant limits assumed): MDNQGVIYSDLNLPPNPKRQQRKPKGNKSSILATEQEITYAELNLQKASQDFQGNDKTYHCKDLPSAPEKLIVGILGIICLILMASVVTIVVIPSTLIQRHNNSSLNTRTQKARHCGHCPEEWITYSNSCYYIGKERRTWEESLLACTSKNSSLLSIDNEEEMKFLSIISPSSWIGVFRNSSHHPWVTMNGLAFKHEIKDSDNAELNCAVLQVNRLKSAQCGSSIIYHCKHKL

[13] = molecular target: T13, coiled-coil domain containing 74B, transcript variant 2 (human, UniProt Q96LY2 1-380)
T13 construct: on protein array; also called CCDC74B
T13 sequence (Q96LY2 other isoform, or with tags, fused parts or gaps mutant limits assumed): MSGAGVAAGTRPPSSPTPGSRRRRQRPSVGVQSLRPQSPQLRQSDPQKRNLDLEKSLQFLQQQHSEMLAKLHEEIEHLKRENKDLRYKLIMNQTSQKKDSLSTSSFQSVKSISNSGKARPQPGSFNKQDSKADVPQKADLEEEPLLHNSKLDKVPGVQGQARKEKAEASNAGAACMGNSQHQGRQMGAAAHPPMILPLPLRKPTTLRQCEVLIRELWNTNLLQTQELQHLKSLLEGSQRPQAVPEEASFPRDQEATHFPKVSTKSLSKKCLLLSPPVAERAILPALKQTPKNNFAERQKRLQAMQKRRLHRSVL

[14] = molecular target: T14, HAUS augmin like complex subunit 1, transcript variant 1 (human, UniProt Q96CS2 1-278)
T14 construct: on protein array; also called HAUS1
T14 sequence: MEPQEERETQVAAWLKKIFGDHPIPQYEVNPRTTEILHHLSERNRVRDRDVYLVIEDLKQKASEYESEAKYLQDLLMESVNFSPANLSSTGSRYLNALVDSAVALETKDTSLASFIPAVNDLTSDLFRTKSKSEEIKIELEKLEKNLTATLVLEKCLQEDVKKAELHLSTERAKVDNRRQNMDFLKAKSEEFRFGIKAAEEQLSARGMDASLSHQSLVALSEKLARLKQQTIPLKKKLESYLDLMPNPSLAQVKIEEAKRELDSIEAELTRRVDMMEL

[15] = molecular target: T15, neural retina leucine zipper, transcript variant X4 (human, UniProt P54845 1-237)
T15 construct: on protein array; also called NRL
T15 sequence (P54845 whole entry, change not shown): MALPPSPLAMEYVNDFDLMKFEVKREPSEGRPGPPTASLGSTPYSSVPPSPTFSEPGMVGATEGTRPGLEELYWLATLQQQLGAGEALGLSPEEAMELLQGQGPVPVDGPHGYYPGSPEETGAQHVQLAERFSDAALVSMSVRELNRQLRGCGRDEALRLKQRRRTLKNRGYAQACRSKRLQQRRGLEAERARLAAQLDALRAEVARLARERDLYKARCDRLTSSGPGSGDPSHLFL

B1: TSAR1005 (antibody, V domains shown)
VH: QVQLVESGGGVVQPGRSLRLSCVASGFTFSNYAMHWVRQAPGKGLEWVAVIWYDGSNEYYRDSVEGRFTISRDSSKNTLYLLVNSLRAEDTAVYYCARGNGPKSGKYSDFDYWGQGTLVTVSS
VL: DVVMTQSPLSLPVTLGQAASISCRSSQSLVYSDGNTYLNWFQQRPGQSPRRLIYKVSNRESGVPDRFSGSGSGTDFTLQISRVEAEDVGIYYCMQGAHWPPITFGQGTRLEIKR
notes: VH/VL tied via antigen in summary, not by name in this stretch
binding result [1]: binds
binding result [2]: binds
binding result [3]: binds

B2: TSAR1006 (antibody, V domains shown)
VH: QVQLVQSGTEVKKPGASVKVSCKASGYRFTSNGISWVRQAPGQGLQWMGWISTDSGNTNYAQSFQGRVTLTRDTSTNTAYLELRRLRSEDTAVYYCARDKSWYFDYWGQGTLVSVSS
VL: SYELTQPPSVSVSPGQTARITCSGDALPKKYVFWYQQRSGQAPVLVIYEDSKRPSGIPDRFSGSSSGTLATLTISGAQVEDEADYYCYSTDTIGNWVFGGGTRLTVL
notes: as for B1
binding result [4]: binds
binding result [5]: binds

B3: TBRE1007 (antibody, V domains shown)
VH: QVQLQESGPGLVRPSETLSLTCDVSGYLISSGYYWGWVRQPPGKGLEWIGSVYHSGNAYYNPSLKGRVTMSVDTSKNQFSLKLTSVAAEDTAVYYCAREHRSGYQRYWGQGTLVTVSS
VL: IQMTQSPSSLSASVGDRVTITCRASQAIANSLAWYQQRPGKAPKLLIYAASSLESGVPSRFSGSGSGTDYTLTISSLQPEDFATYYCQQYYINPRTFGQGTKVEIKR
notes: VH/VL only
binding result [6]: binds
binding result [7]: binds

B6: TREC1003 (antibody, V domains shown)
VH: QVQLVQSGSEVKKPGASVRLACKTSGYTFSNYGVSWVRQGPGRGLEWLGWISGYNGRTHSADKFRDRVTLTTDTSTTTVYVDLKNLTSDDTAVYYCARVGTSHWYSDSWGQGTLVTVSS
VL: QSVLTQPPSVSGAPGQRVTISCAGSYSNIGAGYDVHWYRQLPGTAPTLLIYSNNNRPSGVSDRFSGSKSGTSASLAITGLQAEDEADYYCQSFDSSLSRSVFGTGTKVTVL
notes: as for B1
binding result [12]: binds

Continued, values first:

binding result [8]: binds
B4: TSTO1001 (antibody, V domains shown)
VH: VVQLLESGGGLVHPGGSLRISCAASEFTFSAYAMTWVRQAPGKGLEWVSAISGSGGRTYYADSLKGRFTISRDNSKHTLYLLMNSLRVEDTAVYYCASRYRSPSGAFDIWGQGTLVTVSS
VL: EIVMTQSPATLSVSQGERATLSCRASQSVGSDLAWYQQKPGQAPRLLIYDASARATDIPARFSGSGSETEFTLTISSLQSEDFAVYYCQHYSDWRALTFGGGTKVEIKR
notes: as for B1

binding result [9]: binds
binding result [10]: binds
binding result [11]: binds
B5: TPRO1002 (antibody, V domains shown)
VH: EVQLVESGGGVIKPGGSLKLSCEGSGFTLDDYVMHWVRQAPGKGLEWISSISGDGTRTYYADSVKGRFTISRNNGKNSLYLQMDSLRREDTALYYCAKDARLAYYGMDVWGQGTTVTVSS
VL: QSALTQPASVSGSPGQSITISCTGTSSDIGGYDLVSWYQHHPGKAPKLVISEGSKRPSGVSNRFFGSKSGNTASLTISGLQAEDEADYYCCSFTGTSTFVFGTGTKVTVL
notes: as for B1

binding result [13]: binds
B7: TSAR1003 (antibody, V domains shown)
VH: QLQLQESGPGLVKPSETLSLTCTVSGVSIGTSSYYWGWIRQPPAKGLEWIGSIYYSGSTYYNPSLKNRVTISVDTSKNHFSLKLSSVTAADTAVYYCARHRTGQYYYNSWGQGTLVTVSS
VL: SSELTQDPAVSVALGQTVRITCQGDSLRTDYATWYQQKPGQAPILVFYGEDNRPSGIPDRFSGSSSGNTASLTITGAQAEDEADYYCNSRDSSGHHWVFGGGTKLTVL
notes: as for B1

binding result [14]: binds
B8: TSTO1002 (antibody, V domains shown)
VH: EVQLVESGGGLVKPGGSLRLSCAASGFTFSNAWMNWVRQTPGKGLEWVGRIKTKTDGGTTDYAEPVKGRFTISRDDSKNTLYLQMNSLKTEDTAVYYCTRGAVADYWGQGTQVTVSS
VL: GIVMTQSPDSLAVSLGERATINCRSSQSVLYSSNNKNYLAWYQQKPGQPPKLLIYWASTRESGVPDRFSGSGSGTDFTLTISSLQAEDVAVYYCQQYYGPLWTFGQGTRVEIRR
notes: as for B1

binding result [15]: binds
B9: TSAR1001 (antibody, V domains shown)
VH: EVQLVESGGGMVQPGESLRLSCAASGFDFTSYWMAWVRQAPGKGLEWVANMNADGSEKHYVDSVKGRFSISRDNAKKLLFLQMNSLTVDDTGVYYCARDEGRREGAWGQGTQVIVSA
VL: EIVLTQSPATLSFSPGDRATLSCRASQNINRFLAWYQQKPGQTPRLLIYDASTRATGIPARFSGSGSGTDFSLIISSLEPEDFAIYYCQQRNNWPITFGPGTKVDVK
notes: as for B1
